Measured values as given in publication PMC6130943, “Cytochrome P450 and O-methyltransferase catalyze the final steps in the biosynthesis of the anti-addictive alkaloid ibogaine from Tabernanthe iboga” (The Journal of Biological Chemistry, 2018).

Tested on: CC[C@H]1C[C@@H]2C[C@H]3c4[nH]c5ccc(O)cc5c4CCN(C2)[C@@H]13
Assay: HPLC-MS of ibogaine formation, Michaelis-Menten fit
Assay type: biochemical, Tabernanthe iboga
Conditions: SAM, HEPES, pH 9 (relative-rate assays adjusted to optimum), 30 °C, 25 min
Excerpt: HPLC-MS of ibogaine formation, Michaelis-Menten fit on N10OMT (noribogaine-10-O-methyltransferase; OMT candidate 1)

With “N10OMT (noribogaine-10-O-methyltransferase; OMT candidate 1) (Tabernanthe iboga)” the Km was 73.6 ± 28.5 µM, the Vmax was 0.00084 µmol/min/mg and the kcat was 0.000548 ± 7.23e-05 s⁻¹. The kcat/Km was 7.45 ± 3.05 M⁻¹ s⁻¹.
